Experimental data published in the supplement of paper PMC9876800.

System: peptide library, one residue held at a place counted from the S/T acceptor
Assay: relative phosphorylation of the sub-library (ratio to the mean residue at this position); higher = residue favoured
Details: human
How it was run: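 Purified recombinant kinases (human or orthologue constructs) were incubated in 384-well plates with biotinylated degenerate peptide sub-libraries, each fixing one residue at one position around a central Ser/Thr. Peptides were at 50 μM, with 50 μM ATP spiked with γ-32P-ATP, for 90 min under kinase-specific conditions. Spots on streptavidin membranes were phosphorimaged and quantified by densitometry. Relative sub-library phosphorylation is a ratio to the mean residue at that position.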

Sequence of SGK1, construct: aa61-end (O00141 61-431, looked up): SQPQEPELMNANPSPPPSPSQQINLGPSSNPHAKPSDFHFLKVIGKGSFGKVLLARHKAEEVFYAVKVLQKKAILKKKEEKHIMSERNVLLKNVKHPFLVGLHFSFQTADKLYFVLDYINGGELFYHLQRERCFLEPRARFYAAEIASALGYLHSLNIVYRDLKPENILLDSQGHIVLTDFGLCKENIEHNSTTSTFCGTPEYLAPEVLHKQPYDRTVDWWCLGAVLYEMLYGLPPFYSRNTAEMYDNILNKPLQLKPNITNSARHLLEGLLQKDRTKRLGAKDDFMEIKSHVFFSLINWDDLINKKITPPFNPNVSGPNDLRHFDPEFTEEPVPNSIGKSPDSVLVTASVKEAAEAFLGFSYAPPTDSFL
Sequence of RIPK4, construct: aa1-300 (P57078 1-300, looked up): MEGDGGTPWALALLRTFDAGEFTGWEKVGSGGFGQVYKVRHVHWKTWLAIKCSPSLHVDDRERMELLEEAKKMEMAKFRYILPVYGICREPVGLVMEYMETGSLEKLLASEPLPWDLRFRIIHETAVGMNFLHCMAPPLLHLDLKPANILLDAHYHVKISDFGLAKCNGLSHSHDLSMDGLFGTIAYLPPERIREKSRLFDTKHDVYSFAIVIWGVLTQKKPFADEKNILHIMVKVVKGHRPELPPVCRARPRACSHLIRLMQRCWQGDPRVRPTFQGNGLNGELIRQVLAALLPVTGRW

RIPK4, construct: aa1-300 (from UniProt P57078)
relative phosphorylation
Details	at +1	at +2	at +3	at +4	at -1	at -2	at -3	at -4	at -5
A fixed	0.786	0.77	0.723	0.883	0.722	0.944	1.01	0.988	1.04
D fixed	0.444	0.547	0.572	0.75	1.76	1.53	1.02	1.45	1.43
E fixed	0.458	0.509	0.485	0.618	0.809	1.36	0.853	0.96	0.926
F fixed	1.86	1.04	1.37	1.16	0.6	0.863	0.994	0.822	1.04
G fixed	1.04	0.738	0.909	0.918	0.585	1.33	0.969	1.07	0.944
H fixed	0.776	1.18	0.859	1.07	1.48	1.37	1.14	1.04	1.07
I fixed	1.77	0.843	1.78	1.05	0.841	0.635	0.848	0.861	0.876
K fixed	0.691	1.66	0.792	1.25	1.63	0.64	0.919	0.9	1.09
L fixed	1.25	0.978	1.5	1.01	0.858	0.628	0.941	0.819	0.926
M fixed	1.71	1.11	1.04	0.831	0.815	0.789	0.996	0.91	0.909
N fixed	0.665	0.943	0.725	0.726	1.52	1.24	0.837	1.26	0.941
P fixed	0.376	0.62	0.706	1.32	0.461	0.502	1.11	0.844	0.922
Q fixed	1.19	0.924	0.779	0.802	1.02	0.898	0.976	0.888	0.856
R fixed	1.11	2.28	0.932	1.29	1.33	0.986	1.43	0.936	1.03
V fixed	1.26	0.815	1.09	0.798	1.01	0.618	0.723	0.874	0.866
W fixed	0.781	0.988	1.45	1.41	0.59	1.06	1.24	1.39	1.24
Y fixed	0.836	1.07	1.3	1.13	0.963	1.6	0.998	0.977	0.898
pThr fixed	0.839	0.707	0.778	0.887	1.03	1.04	1.07	1.17	1.23
pTyr fixed	0.524	0.726	0.725	0.802	0.897	0.817	0.967	0.967	1.09

RPS6KA4, construct: Full length (from UniProt O75676)
relative phosphorylation
Details	at +1	at +2	at +3	at +4	at -1	at -2	at -3	at -4	at -5
A fixed	0.665	0.804	0.781	0.843	0.745	0.911	0.769	1.08	1.06
D fixed	0.621	1.61	1.12	1.43	0.996	0.411	0.319	0.715	0.699
E fixed	0.77	1.07	1.12	1.33	0.567	0.413	0.329	0.853	0.661
F fixed	1.3	0.921	1.08	0.864	0.749	0.749	0.472	0.868	1.01
G fixed	0.547	0.65	1.03	1.1	1.11	0.775	0.465	1.15	1.06
H fixed	1.21	1.7	1.3	1.35	1.04	0.924	0.817	1.17	1.2
I fixed	1.26	0.85	0.811	0.767	0.44	0.354	0.258	0.665	0.858
K fixed	0.634	0.72	0.71	0.934	1.41	1.2	0.915	1.32	1.25
L fixed	1	0.698	0.998	0.782	0.791	0.518	0.285	0.679	1
M fixed	1.27	0.909	1.04	0.867	1.04	0.629	0.373	0.84	0.857
N fixed	0.937	1.44	0.935	1.23	1.57	0.861	0.473	1.01	0.871
P fixed	0.345	0.5	0.942	1.09	1.3	0.429	0.64	1.01	0.887
Q fixed	1.1	0.873	0.949	1.25	1.19	0.885	0.642	1.09	0.831
R fixed	0.771	0.869	0.677	0.74	1.5	6.18	8.7	1.81	1.96
V fixed	1.24	0.807	0.726	0.639	0.51	0.354	0.247	0.583	0.773
W fixed	1.89	1.39	1.62	1.07	0.898	0.748	0.738	1.13	1.19
Y fixed	1.44	1.18	1.17	0.72	1.14	0.66	0.555	1.04	0.832
pThr fixed	1.11	1.18	1.15	1.83	0.415	0.419	0.515	0.698	0.644
pTyr fixed	1.57	1.17	1.47	1.39	1.27	0.502	0.491	0.81	0.804

SGK1, construct: aa61-end (from UniProt O00141)
relative phosphorylation
Details	at +1	at +2	at +3	at +4	at -1	at -2	at -3	at -4	at -5
A fixed	0.603	1.03	0.911	1.01	0.815	1.22	0.388	1.06	0.955
D fixed	0.457	0.581	1.1	0.881	0.63	0.242	0.147	0.679	0.427
E fixed	0.461	0.537	1.14	1.03	0.483	0.227	0.157	0.749	0.453
F fixed	2.32	0.768	0.975	0.795	0.768	0.493	0.16	0.613	0.62
G fixed	0.766	1.06	1.33	1.17	1.73	0.758	0.268	1.04	0.948
H fixed	0.889	1.6	1.35	1.33	1.25	0.946	0.757	1.01	0.99
I fixed	1.45	1.18	0.784	0.863	0.395	0.28	0.145	0.641	0.7
K fixed	0.861	0.906	1.17	1.05	1.38	3.57	1.4	1.98	2.38
L fixed	1.22	1.27	0.975	0.702	0.751	0.401	0.149	0.699	0.617
M fixed	1.49	0.948	0.833	0.936	1.05	0.335	0.157	0.838	0.736
N fixed	0.881	1.13	0.976	1.22	1.52	0.55	0.245	0.825	0.852
P fixed	0.859	0.94	0.921	1.31	1.25	0.388	0.296	1.17	0.882
Q fixed	0.974	0.674	0.939	0.921	0.893	0.544	0.443	0.902	0.744
R fixed	1.01	1.58	1.01	1.03	1.64	5.91	11.7	2.89	3.67
V fixed	1.16	1.01	0.753	0.737	0.471	0.352	0.152	0.693	0.675
W fixed	0.7	0.737	0.892	1.1	0.692	0.332	0.225	0.59	0.626
Y fixed	0.906	1.05	0.934	0.912	1.28	0.452	0.219	0.625	0.721
pThr fixed	0.747	0.655	0.926	1.36	0.306	0.367	0.24	0.711	0.556
pTyr fixed	0.806	1.04	1.43	1.54	0.752	0.319	0.232	0.574	0.722
